Measurements reported in US10941182 (Amgen, dated 2021).
Blank lines part the entries; values can stand above or below the binder they belong to. Starred links: 1 amine or outer side, 2 acyl side, 3 side chain; linkers in the order of their positions; H or OH if unused. Non-standard residues stand in square brackets, D forms with d. Primed or numbered codes have the meaning given here. *: point of attachment. NPipG = 2-(piperidin-4-ylamino)acetic acid, O=C(CN(C1CCN([*:3])CC1)[*:1])[*:2]; AC4Abu = α-carboxy-4-aminobutyric acid, O=C(C(CCN[*:1])C(=O)[*:3])[*:2]; Oic = O=C(O)[C@@H]1C[C@@H]2CCCC[C@@H]2N1; Phe(4-Cl) = N[C@@H](Cc1ccc(Cl)cc1)C(=O)O; Phe(4-F) = N[C@@H](Cc1ccc(F)cc1)C(=O)O; γGlu = O=C(O)[C@H](CCC(=O)[*:2])N[*:1]; d(β3hF) = N[C@@H](CC(=O)O)Cc1ccccc1; Igl = N[C@H](C(=O)O)C1Cc2ccccc2C1; NMeR = CN[C@@H](CCCNC(=N)N)C(=O)O; Palmitoyl = CCCCCCCCCCCCCCCC(=O)*; 3Pal = N[C@@H](Cc1cccnc1)C(=O)O; Cha = N[C@@H](CC1CCCCC1)C(=O)O; αMeL = CC(C)C[C@](C)(N)C(=O)O; αMeOrn = C[C@](N)(CCCN)C(=O)O; β3hP = O=C(O)C[C@@H]1CCCN1; Nle = CCCC[C@H](N)C(=O)O; Orn = NCCC[C@H](N)C(=O)O; Dab = NCC[C@H](N)C(=O)O; Pip′ = not defined here; Dap = NC[C@H](N)C(=O)O; AEEA = NCCOCCOCC(=O)O; Aib = CC(C)(N)C(=O)O; NPrGly = CCCNCC(=O)O; BLeu = β-leucine; Sar = CNCC(=O)O

Key:
[1] = biological target: T1, human APJ receptor (human, UniProt P35414 1-380); test: cell-based or functional assay
T1 sequence (looked up): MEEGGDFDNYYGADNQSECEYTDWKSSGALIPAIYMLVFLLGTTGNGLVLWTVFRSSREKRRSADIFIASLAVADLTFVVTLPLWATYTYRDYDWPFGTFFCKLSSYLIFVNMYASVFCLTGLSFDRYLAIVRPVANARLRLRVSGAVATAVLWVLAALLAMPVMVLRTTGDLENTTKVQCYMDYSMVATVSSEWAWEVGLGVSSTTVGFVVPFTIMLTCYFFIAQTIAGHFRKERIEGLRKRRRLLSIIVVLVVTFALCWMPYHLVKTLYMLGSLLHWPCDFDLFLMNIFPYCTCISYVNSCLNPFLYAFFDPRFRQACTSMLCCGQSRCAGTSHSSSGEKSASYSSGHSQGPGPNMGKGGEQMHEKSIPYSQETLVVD

[2] = biological target: T2, rat APJ receptor (rat, UniProt Q9JHG3 1-377); test: cell-based or functional assay
T2 sequence (looked up): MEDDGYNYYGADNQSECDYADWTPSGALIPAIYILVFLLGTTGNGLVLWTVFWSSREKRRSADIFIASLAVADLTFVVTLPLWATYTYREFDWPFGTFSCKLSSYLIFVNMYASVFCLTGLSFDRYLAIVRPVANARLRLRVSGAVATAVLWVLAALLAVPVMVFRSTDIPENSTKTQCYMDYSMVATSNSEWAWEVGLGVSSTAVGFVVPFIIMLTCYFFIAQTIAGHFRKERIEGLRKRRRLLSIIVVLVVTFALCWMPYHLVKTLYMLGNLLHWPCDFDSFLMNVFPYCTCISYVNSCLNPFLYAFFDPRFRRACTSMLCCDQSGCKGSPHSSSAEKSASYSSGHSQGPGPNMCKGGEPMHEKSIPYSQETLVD

Binder: Palmitoyl-[γGlu][AEEA][AEEA][dQ]RP[NMeR][αMeL]SHKG[Oic][Nle][β3hP][Phe(4-Cl)]-OH (not fully specified (residue 10)) [SEQ ID NO: 631]
EC50 Human APJ Receptor [1]: 0.338 nM
EC50 Rat APJ Receptor [2]: 0.000699 µM

B3: SEQ ID NO: 632 (peptide)
peptide: Palmitoyl-[γGlu][AEEA][AEEA][dQ]RP[NMeR][αMeL]SH[NPipG]G[Oic][Nle][β3hP][Phe(4-Cl)]-OH
SMILES: CCCCCCCCCCCCCCCC(=O)N[C@@H](CCC(=O)NCCOCCOCC(=O)NCCOCCOCC(=O)N[C@H](CCC(N)=O)C(=O)N[C@@H](CCCNC(=N)N)C(=O)N1CCC[C@H]1C(=O)N(C)[C@@H](CCCNC(=N)N)C(=O)N[C@@](C)(CC(C)C)C(=O)N[C@@H](CO)C(=O)N[C@@H](Cc1c[nH]cn1)C(=O)N(CC(=O)NCC(=O)N1[C@H](C(=O)N[C@@H](CCCC)C(=O)N2CCC[C@H]2CC(=O)N[C@@H](Cc2ccc(Cl)cc2)C(=O)O)C[C@@H]2CCCC[C@@H]21)C1CCNCC1)C(=O)O
EC50 Human APJ Receptor [1]: 3.02 nM
EC50 Rat APJ Receptor [2]: 0.022 µM

Binder: Palmitoyl-[γGlu][AEEA][AEEA][dQ]RP[NMeR][Cha][BLeu]HKG[Oic][Nle][β3hP][d(β3hF)]-OH [SEQ ID NO: 615]
EC50 Human APJ Receptor [1]: 9.42 nM
EC50 Rat APJ Receptor [2]: 0.0232 µM

B4: SEQ ID NO: 616 (peptide)
peptide: Palmitoyl-[γGlu][AEEA][AEEA][dQ]RP[NMeR][Cha]S[Dap]KG[Oic][Nle][β3hP][d(β3hF)]-OH
SMILES: CCCCCCCCCCCCCCCC(=O)N[C@@H](CCC(=O)NCCOCCOCC(=O)NCCOCCOCC(=O)N[C@H](CCC(N)=O)C(=O)N[C@@H](CCCNC(=N)N)C(=O)N1CCC[C@H]1C(=O)N(C)[C@@H](CCCNC(=N)N)C(=O)N[C@@H](CC1CCCCC1)C(=O)N[C@@H](CO)C(=O)N[C@@H](CN)C(=O)N[C@@H](CCCCN)C(=O)NCC(=O)N1[C@H](C(=O)N[C@@H](CCCC)C(=O)N2CCC[C@H]2CC(=O)N[C@@H](CC(=O)O)Cc2ccccc2)C[C@@H]2CCCC[C@@H]21)C(=O)O
EC50 Human APJ Receptor [1]: 2.75 nM
EC50 Rat APJ Receptor [2]: 0.0173 µM

B5: SEQ ID NO: 620 (peptide)
peptide: Palmitoyl-[γGlu][AEEA][AEEA][dQ]RP[NMeR][Cha]SH[3Pal]G[Oic][Nle][β3hP][d(β3hF)]-OH
SMILES: CCCCCCCCCCCCCCCC(=O)N[C@@H](CCC(=O)NCCOCCOCC(=O)NCCOCCOCC(=O)N[C@H](CCC(N)=O)C(=O)N[C@@H](CCCNC(=N)N)C(=O)N1CCC[C@H]1C(=O)N(C)[C@@H](CCCNC(=N)N)C(=O)N[C@@H](CC1CCCCC1)C(=O)N[C@@H](CO)C(=O)N[C@@H](Cc1c[nH]cn1)C(=O)N[C@@H](Cc1cccnc1)C(=O)NCC(=O)N1[C@H](C(=O)N[C@@H](CCCC)C(=O)N2CCC[C@H]2CC(=O)N[C@@H](CC(=O)O)Cc2ccccc2)C[C@@H]2CCCC[C@@H]21)C(=O)O
EC50 Human APJ Receptor [1]: 7.42 nM
EC50 Rat APJ Receptor [2]: 0.0149 µM

B6: SEQ ID NO: 622 (peptide)
peptide: Palmitoyl-[γGlu][AEEA][AEEA][dQ]RP[NMeR][Cha]SH[Phe(4-F)]G[Oic][Nle][β3hP][d(β3hF)]-OH
SMILES: CCCCCCCCCCCCCCCC(=O)N[C@@H](CCC(=O)NCCOCCOCC(=O)NCCOCCOCC(=O)N[C@H](CCC(N)=O)C(=O)N[C@@H](CCCNC(=N)N)C(=O)N1CCC[C@H]1C(=O)N(C)[C@@H](CCCNC(=N)N)C(=O)N[C@@H](CC1CCCCC1)C(=O)N[C@@H](CO)C(=O)N[C@@H](Cc1c[nH]cn1)C(=O)N[C@@H](Cc1ccc(F)cc1)C(=O)NCC(=O)N1[C@H](C(=O)N[C@@H](CCCC)C(=O)N2CCC[C@H]2CC(=O)N[C@@H](CC(=O)O)Cc2ccccc2)C[C@@H]2CCCC[C@@H]21)C(=O)O
EC50 Human APJ Receptor [1]: 11.8 nM
EC50 Rat APJ Receptor [2]: 0.0197 µM

B7: SEQ ID NO: 621 (peptide)
peptide: Palmitoyl-[γGlu][AEEA][AEEA][dQ]RP[NMeR][Cha]SH[Phe(4-Cl)]G[Oic][Nle][β3hP][d(β3hF)]-OH
SMILES: CCCCCCCCCCCCCCCC(=O)N[C@@H](CCC(=O)NCCOCCOCC(=O)NCCOCCOCC(=O)N[C@H](CCC(N)=O)C(=O)N[C@@H](CCCNC(=N)N)C(=O)N1CCC[C@H]1C(=O)N(C)[C@@H](CCCNC(=N)N)C(=O)N[C@@H](CC1CCCCC1)C(=O)N[C@@H](CO)C(=O)N[C@@H](Cc1c[nH]cn1)C(=O)N[C@@H](Cc1ccc(Cl)cc1)C(=O)NCC(=O)N1[C@H](C(=O)N[C@@H](CCCC)C(=O)N2CCC[C@H]2CC(=O)N[C@@H](CC(=O)O)Cc2ccccc2)C[C@@H]2CCCC[C@@H]21)C(=O)O
EC50 Human APJ Receptor [1]: 16.4 nM
EC50 Rat APJ Receptor [2]: 0.0261 µM

Other lines, results leading:

EC50 Human APJ Receptor [1]: 1.62 nM
EC50 Rat APJ Receptor [2]: 0.00664 µM
B1: SEQ ID NO: 635 (peptide)
peptide: Palmitoyl-[γGlu][AEEA][AEEA][dQ]RP[NMeR][αMeL]SH[αMeOrn]G[Oic][Nle][β3hP][Phe(4-Cl)]-OH
SMILES: CCCCCCCCCCCCCCCC(=O)N[C@@H](CCC(=O)NCCOCCOCC(=O)NCCOCCOCC(=O)N[C@H](CCC(N)=O)C(=O)N[C@@H](CCCNC(=N)N)C(=O)N1CCC[C@H]1C(=O)N(C)[C@@H](CCCNC(=N)N)C(=O)N[C@@](C)(CC(C)C)C(=O)N[C@@H](CO)C(=O)N[C@@H](Cc1c[nH]cn1)C(=O)N[C@@](C)(CCCN)C(=O)NCC(=O)N1[C@H](C(=O)N[C@@H](CCCC)C(=O)N2CCC[C@H]2CC(=O)N[C@@H](Cc2ccc(Cl)cc2)C(=O)O)C[C@@H]2CCCC[C@@H]21)C(=O)O

EC50 Human APJ Receptor [1]: 4.05 nM
EC50 Rat APJ Receptor [2]: 0.0142 µM
Binder: Palmitoyl-[γGlu][AEEA][AEEA][dQ]RP[NMeR][αMeL]SH[Phe(4-F)]G[Oic][Nle][β3hP][Phe(4-Cl)]-OH [SEQ ID NO: 637]

EC50 Human APJ Receptor [1]: 0.58 nM
EC50 Rat APJ Receptor [2]: 0.00366 µM
Binder: Palmitoyl-[AC4Abu][AEEA][AEEA][dQ]RP[NMeR][αMeL]SHK[Sar][Oic][Nle][β3hP][Phe(4-Cl)]-OH [SEQ ID NO: 641]

EC50 Human APJ Receptor [1]: 1.59 nM
EC50 Rat APJ Receptor [2]: 0.00365 µM
B2: SEQ ID NO: 636 (peptide)
peptide: Palmitoyl-[γGlu][AEEA][AEEA][dQ]RP[NMeR][αMeL]SH[3Pal]G[Oic][Nle][β3hP][Phe(4-Cl)]-OH
SMILES: CCCCCCCCCCCCCCCC(=O)N[C@@H](CCC(=O)NCCOCCOCC(=O)NCCOCCOCC(=O)N[C@H](CCC(N)=O)C(=O)N[C@@H](CCCNC(=N)N)C(=O)N1CCC[C@H]1C(=O)N(C)[C@@H](CCCNC(=N)N)C(=O)N[C@@](C)(CC(C)C)C(=O)N[C@@H](CO)C(=O)N[C@@H](Cc1c[nH]cn1)C(=O)N[C@@H](Cc1cccnc1)C(=O)NCC(=O)N1[C@H](C(=O)N[C@@H](CCCC)C(=O)N2CCC[C@H]2CC(=O)N[C@@H](Cc2ccc(Cl)cc2)C(=O)O)C[C@@H]2CCCC[C@@H]21)C(=O)O

EC50 Human APJ Receptor [1]: 3.2 nM
EC50 Rat APJ Receptor [2]: 0.00932 µM
Binder: Palmitoyl-[γGlu][AEEA][AEEA][dQ]RP[NMeR][αMeL]SH[Dab]G[Oic][Nle][β3hP][Phe(4-Cl)]-OH [SEQ ID NO: 638]

EC50 Human APJ Receptor [1]: 0.463 nM
EC50 Rat APJ Receptor [2]: 0.00379 µM
Binder: Palmitoyl-[AC4Abu][AEEA][AEEA][dQ]RP[NMeR][Cha][NPrGly]HKG[Pip′][Nle][Aib][Phe(4-Cl)]-OH [SEQ ID NO: 643]

EC50 Human APJ Receptor [1]: 1.4 nM
EC50 Rat APJ Receptor [2]: 0.00419 µM
Binder: Palmitoyl-[AC4Abu][AEEA][AEEA][dQ]RP[NMeR][Cha]S[NPrGly]KG[Pip′][Nle][Aib][Phe(4-Cl)]-OH [SEQ ID NO: 644]

EC50 Human APJ Receptor [1]: 3.28 nM
EC50 Rat APJ Receptor [2]: 0.0154 µM
Binder: Palmitoyl-[γGlu][AEEA][AEEA][dQ]RP[NMeR][αMeL]SH[Dap]G[Oic][Nle][β3hP][Phe(4-Cl)]-OH [SEQ ID NO: 639]

EC50 Human APJ Receptor [1]: 4.03 nM
EC50 Rat APJ Receptor [2]: 0.0252 µM
Binder: Palmitoyl-[AC4Abu][AEEA][AEEA][dQ]RP[NMeR][αMeL]SH[Igl]G[Oic][Nle][β3hP][Phe(4-Cl)]-OH [SEQ ID NO: 640]

EC50 Human APJ Receptor [1]: 0.164 nM
EC50 Rat APJ Receptor [2]: 0.0022 µM
B8: SEQ ID NO: 634 (peptide)
peptide: Palmitoyl-[γGlu][AEEA][AEEA][dQ]RP[NMeR][αMeL]SH[Orn]G[Oic][Nle][β3hP][Phe(4-Cl)]-OH
SMILES: CCCCCCCCCCCCCCCC(=O)N[C@@H](CCC(=O)NCCOCCOCC(=O)NCCOCCOCC(=O)N[C@H](CCC(N)=O)C(=O)N[C@@H](CCCNC(=N)N)C(=O)N1CCC[C@H]1C(=O)N(C)[C@@H](CCCNC(=N)N)C(=O)N[C@@](C)(CC(C)C)C(=O)N[C@@H](CO)C(=O)N[C@@H](Cc1c[nH]cn1)C(=O)N[C@@H](CCCN)C(=O)NCC(=O)N1[C@H](C(=O)N[C@@H](CCCC)C(=O)N2CCC[C@H]2CC(=O)N[C@@H](Cc2ccc(Cl)cc2)C(=O)O)C[C@@H]2CCCC[C@@H]21)C(=O)O
